Results published in patent US20220040290A1.

Target: stabilized CH505 TF ch.SOSIP trimer (E64K/A316W) (HIV-1)
Assay: method not stated

## unmutated common ancestor (UCA) of the CH103 B cell lineage (antibody)
  Kd: 0.171 µM
